The values below come from paper PMC10397247.

Like-named read-outs stand apart in the source and are kept apart here.

What all share (assay): two-hybrid library CCmax;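 further: natural log of median RNA to DNA barcode read ratio; higher means stronger binding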
The target of one experiment is T1, P6-AA-12HAA-E.
T1 chain: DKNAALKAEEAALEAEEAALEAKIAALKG
To be noted: mean of both orientations.

In the next experiment the target is T2, P6-AA-12HAA-D.
T2 chain: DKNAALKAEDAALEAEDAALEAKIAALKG
Particulars: mean of both orientations.

For a further experiment, the target named is T3, P6-AA-1HAA-N.
T3 chain: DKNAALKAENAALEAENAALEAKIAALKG
To be noted: mean of both orientations.

Another experiment concerns the target T4, P6-AA-12HAA-V.
T4 chain: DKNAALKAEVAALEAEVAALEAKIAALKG
Particulars: mean of both orientations.

In another experiment the target is T5, P6-AA-12HAA-T.
T5 chain: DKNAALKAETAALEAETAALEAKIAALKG
Particulars: mean of both orientations.

The next experiment has as its target T6, P6-AA-12HAA-R.
T6 chain: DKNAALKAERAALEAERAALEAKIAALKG
To be noted: mean of both orientations.

In the next experiment the target is T7, P6-AA-12HAA-H.
T7 chain: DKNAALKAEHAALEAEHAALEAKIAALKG
Particulars: mean of both orientations.

For a further experiment, the target named is T8, P6-AA-12HAA-L.
T8 chain: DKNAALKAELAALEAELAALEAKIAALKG
Particulars: mean of both orientations.

A further experiment concerns the target T9, P6-AA-12HAA-K.
T9 chain: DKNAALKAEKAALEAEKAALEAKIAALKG
To be noted: mean of both orientations.

Another experiment deals with T10, P6-AA-12HAA-S.
T10 chain: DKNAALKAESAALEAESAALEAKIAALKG

A further experiment has as its target T11, P6-AA-12HAA-Y.
T11 chain: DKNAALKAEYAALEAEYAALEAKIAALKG

A further experiment deals with T12, 4H3591-AA.
T12 chain: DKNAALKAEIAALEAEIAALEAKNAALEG
Particulars: mean of both orientations.

The target in the next experiment is T13, 4H3102-AA.
T13 chain: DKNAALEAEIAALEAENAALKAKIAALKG
To be noted: mean of both orientations.

The target of a further experiment is T14, 4H2991-AA.
T14 chain: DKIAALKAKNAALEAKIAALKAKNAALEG
To be noted: mean of both orientations.

For a further experiment, the target named is T15, 4H3066-AA.
T15 chain: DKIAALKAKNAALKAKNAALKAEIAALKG
Particulars: mean of both orientations.

The target in another experiment is T16, 4H675-AA.
T16 chain: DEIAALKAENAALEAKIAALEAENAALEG
To be noted: mean of both orientations.

A further experiment has as its target T17, 4H3029-AA.
T17 chain: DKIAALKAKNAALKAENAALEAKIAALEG
To be noted: mean of both orientations.

A further experiment has as its target T18, 4H656-AA.
T18 chain: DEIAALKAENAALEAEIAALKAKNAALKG
To be noted: mean of both orientations.

Another experiment has as its target T19, 4H3939-AA.
T19 chain: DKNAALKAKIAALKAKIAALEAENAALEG
Particulars: mean of both orientations.

A further experiment has as its target T20, 4H3417-AA.
T20 chain: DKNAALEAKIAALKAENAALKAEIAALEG
To be noted: mean of both orientations.

Another experiment addresses T21, 4H2948-AA.
T21 chain: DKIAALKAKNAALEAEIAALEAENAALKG
Particulars: mean of both orientations.

A further experiment addresses T22, 4H3628-AA.
T22 chain: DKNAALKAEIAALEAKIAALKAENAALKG
Particulars: mean of both orientations.

In a further experiment the target is T23, 4H3666-AA.
T23 chain: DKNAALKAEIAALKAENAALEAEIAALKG
Particulars: mean of both orientations.

The target in another experiment is T24, 4H3446-AA.
T24 chain: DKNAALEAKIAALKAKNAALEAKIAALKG
Particulars: mean of both orientations.

The next experiment addresses T25, 4H2742-AA.
T25 chain: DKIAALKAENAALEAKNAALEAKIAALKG
To be noted: mean of both orientations.

The next experiment concerns the target T26, 4H3920-AA.
T26 chain: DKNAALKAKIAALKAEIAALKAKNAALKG
To be noted: mean of both orientations.

The target of a further experiment is T27, 4H3121-AA.
T27 chain: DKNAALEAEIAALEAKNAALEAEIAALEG
Particulars: mean of both orientations.

Another experiment concerns the target T28, 4H2713-AA.
T28 chain: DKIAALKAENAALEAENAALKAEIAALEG
To be noted: mean of both orientations.

The target of the next experiment is T29, 4H971-AA.
T29 chain: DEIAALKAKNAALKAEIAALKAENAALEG
To be noted: mean of both orientations.

For a further experiment, the target named is T30, 4H497-AA.
T30 chain: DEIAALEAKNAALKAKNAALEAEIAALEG
To be noted: mean of both orientations.

Another experiment concerns the target T31, 4H3709-AA.
T31 chain: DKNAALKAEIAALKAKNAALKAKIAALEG
Particulars: mean of both orientations.

The target of a further experiment is T32, 4H478-AA.
T32 chain: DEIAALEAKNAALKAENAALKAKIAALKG
To be noted: mean of both orientations.

In a further experiment the target is T33, 4H428-AA.
T33 chain: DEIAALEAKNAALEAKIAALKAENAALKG
To be noted: mean of both orientations.

Another experiment concerns the target T34, 4H2283-AA.
T34 chain: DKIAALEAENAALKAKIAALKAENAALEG

The target of another experiment is T35, 4H391-AA.
T35 chain: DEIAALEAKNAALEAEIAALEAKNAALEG
To be noted: mean of both orientations.

For DENAALEAKKAALKAKKAALKAEIAALEG [P5-AA-12HAA-K], the interaction score with P6-AA-12HAA-E is -1.48; in the experiment with P6-AA-12HAA-D, -1.9; in the experiment with P6-AA-1HAA-N, -1.37; in the experiment with P6-AA-12HAA-V it was 2.22; with P6-AA-12HAA-T, -0.798; in the experiment with P6-AA-12HAA-R, -1.57. Moreover, the interaction score with P6-AA-12HAA-H is -1.46; in the experiment with P6-AA-12HAA-L it was 1.03; in the experiment with P6-AA-12HAA-K, -1.5; with P6-AA-12HAA-S it was -2.76; with P6-AA-12HAA-Y (mean of both orientations) it was -1.01.

Turning to DENAALEAKVAALKAKVAALKAEIAALEG [P5-AA-12HAA-V], the interaction score in the experiment with P6-AA-12HAA-E was 1.61; in the experiment with P6-AA-12HAA-D, -1.5; with P6-AA-1HAA-N it was -0.708; with P6-AA-12HAA-V, 2.1; with P6-AA-12HAA-T, 1.87; with P6-AA-12HAA-R, 1.94. For the same molecule, the interaction score was 1.34 with P6-AA-12HAA-H; 2.29 in the experiment with P6-AA-12HAA-L; 1.73 with P6-AA-12HAA-K; 1.18 in the experiment with P6-AA-12HAA-S (mean of both orientations); 1.09 with P6-AA-12HAA-Y (mean of both orientations).

With DKIAALEAENAALKAKIAALKAENAALEG [4H2283-AA], the interaction score with 4H3591-AA is -1.46; with 4H3102-AA, 0.17; with 4H2991-AA, -1.95; in the experiment with 4H3066-AA, -1.63; in the experiment with 4H675-AA it was -0.967; with 4H3029-AA it was -1.74. Further, the interaction score with 4H656-AA was 1.84; in the experiment with 4H3939-AA, -1.94; with 4H3417-AA, 1.63; with 4H2948-AA, 0.785; with 4H3628-AA, -1.32; with 4H3666-AA, -0.868. In addition, the interaction score was -1.15 with 4H3446-AA; -1.21 with 4H2742-AA; -1.54 with 4H3920-AA; -0.934 in the experiment with 4H3121-AA; -1.19 in the experiment with 4H2713-AA; -0.878 with 4H971-AA. The interaction score is -1.45 in the experiment with 4H497-AA; -1.11 with 4H3709-AA; -1.52 in the experiment with 4H478-AA; -0.691 in the experiment with 4H428-AA; 1.25 in the experiment with 4H2283-AA; -0.595 with 4H391-AA.

Regarding DENAALEAKLAALKAKLAALKAEIAALEG [P5-AA-12HAA-L], the interaction score in the experiment with P6-AA-12HAA-E was 0.451; in the experiment with P6-AA-12HAA-D it was -1.57; with P6-AA-1HAA-N, -0.665; with P6-AA-12HAA-V it was 2.39; with P6-AA-12HAA-T, 1.66; with P6-AA-12HAA-R, -0.243. Besides, the interaction score with P6-AA-12HAA-H is -0.352; with P6-AA-12HAA-L it was 1.74; with P6-AA-12HAA-K it was 0.645; with P6-AA-12HAA-S (mean of both orientations) it was -0.666; with P6-AA-12HAA-Y it was 2.26.
